What was measured:
GPNMB = biological target: T1, GPNMB (Homo sapiens, UniProt Q14956); experiment: BiaCore 2000 biosensor binding of hybridoma supernatant mAb to GPNMB
T1 construct: made in house; host or cells: HEK 293
T1 sequence (Q14956 23-492): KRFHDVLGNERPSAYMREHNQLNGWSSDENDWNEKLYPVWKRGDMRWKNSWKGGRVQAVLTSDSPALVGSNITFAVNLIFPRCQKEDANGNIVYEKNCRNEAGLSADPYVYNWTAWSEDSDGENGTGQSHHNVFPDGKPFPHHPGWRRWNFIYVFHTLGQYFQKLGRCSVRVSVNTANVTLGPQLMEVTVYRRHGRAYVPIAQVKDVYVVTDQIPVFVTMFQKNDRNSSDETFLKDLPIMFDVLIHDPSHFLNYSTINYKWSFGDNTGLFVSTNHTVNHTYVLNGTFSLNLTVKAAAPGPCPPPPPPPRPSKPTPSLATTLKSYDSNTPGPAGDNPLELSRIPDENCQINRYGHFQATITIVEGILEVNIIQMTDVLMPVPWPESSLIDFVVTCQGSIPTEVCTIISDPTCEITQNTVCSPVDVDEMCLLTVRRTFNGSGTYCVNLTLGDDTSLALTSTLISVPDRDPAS
Description: Certain Hybridoma cell supernatants (29) were analyzed for binding to GPNMB by BiaCore® 2000 biosensor equipped with a research-grade CMS sensor chip. A 1:25 dilution of cell supernatant was passed over a protein A surface for 5 min followed by washing the surface for 10 mins. Subsequently, GPNMB was injected for 90 sec. over the surface at a concentration of 880 nM followed by dissociation. Double-referenced binding data were obtained by subtracting the signal from a control flow cell and subtracting the baseline drift of a buffer injected just prior to the antigen injection. GPNMB binding ddata for each mAb was normalized for the amount of mAb captured on each surface. Normalized, drift corrected responses were also measured. The sensorgrams were fit to a simple 1:1 kinetic model.

[1] = tested on: SK-MEL-2 melanoma xenografts; experiment: Human SK-MEL-2 melanoma xenograft in athymic mice; format: in vivo; conditions: CR011-ONC-1, CR011-vcMMAE 5 mg/kg/treatment i.v. q4d x4, components at doses identical to those in the immunoconjugate
Description: Test Animals: Five- to 6-week old athymic mice (CD-1 nu/nu females), used for human tumor xenografts, were obtained from Harlan Laboratories (Indianapolis, Ind.). Animals were housed in specific pathogen-free conditions, according to the guidelines of the Association for Assessment and Accreditation of Laboratory Animal Care International (AAALAC International). Test animals were provided pelleted food and water ad libitum and kept in a room with conditioned ventilation (HVAC), temperature (22°±2° C.), relative humidity (55%±15%), and photoperiod (12 hr). All studies were carried out with approved institutional animal care and use protocols.
Human Melanoma Xenograft Models. The tumor inhibitory activity of the CR011-MMAE immunoconjugate was measured in an anti-tumor xenograft model using athymic mice, according to published methods (see Geran et al., Cancer Chemother. Rep. 3:1-104 (1972)). […] When tumors became established (10-20 days), the animals were pair-matched into groups (n=6 mice/group), and treatment was administered by intravenous injection (tail vein). […]
The effects of treatment were monitored by repetitive tumor measurements across 2 diameters with Vernier calipers; tumor size (in mg) was calculated using a standard formula, (W^2×L)/2, assuming a specific gravity of 1.0. Tumor size and body weights were assessed twice weekly. […]

SK-Mel-2 cells = experiment: Cell cycle analysis (BrdU / propidium iodide flow cytometry); format: cell-based, human; conditions: SK-Mel-2, 24 hour, 1000 ng/mL
Description: (§1) Briefly, cells were pulsed at the indicated times with 30 μM of bromodeoxyuridine (BrdU, Sigma) for 30 min, harvested, fixed and permeabilized in methanol. Nascent DNA synthesis was detected by anti-bromodeoxyuridine-FITC (BD Biosciences, San Jose, Calif.) staining. Total DNA content was detected using propidium iodide (PI, Sigma). For apoptosis analysis, cells were treated as above and labeled with Annexin V-FITC followed by propidium iodide exclusion using the Annexin V-FITC Apoptosis Detection kit I (BD PharMingen, San Diego, Calif.) according to the manufacturer's protocols. Flow cytometry (as described in the previous Example) was used to assay both cell cycle and apoptosis studies.
(§2) DNA synthesis and cell cycle progression were determined by flow cytometry (Table 52).

TK-10 cells = experiment: as above; format: cell-based, human; conditions: TK-10, 24 hour, 1000 ng/mL
Description: as §1, §2

SF-268 = experiment: Flow cytometry (FACS) of CR011 surface staining; format: binding, human
Description: (§3) Flow Cytometry: Quantitative analysis of CG56972 expression on the surface of cell lines was determined by flow cytometry (FACS). […] Cells were fixed in 1% paraformaldehyde/PBS and examined on a Becton Dickinson FACSCalibur flow cytometer. Data analysis was performed with Becton Dickinson Cell Quest software version 3.3 and the geometric mean fluorescence intensity ratio (GMR) was determined for each cell type.

SF-539 = experiment: Flow cytometry (FACS) of CR011 surface staining; format: binding, human
Description: as §3

SNB-78 = experiment: Flow cytometry (FACS) of CR011 surface staining; format: binding, human
Description: as §3

U-118-MG = experiment: Flow cytometry (FACS) of CR011 surface staining; format: binding, human
Description: as §3

XF-498 = experiment: Flow cytometry (FACS) of CR011 surface staining; format: binding, human
Description: as §3

[2] = mAb captured on protein A, GPNMB 880 nM, 1:1 kinetic model

B1: Mab1.15.1 (protein, listed as Homo sapiens)
chain: QVQLQESGPGLVKPSQTLSLTCTVSGGSISSFNYYWSWIRHHPGKGLEWIGYIYYSGSTYSNPSLKSRVTISVDTSKNQFSLTLSSVTAADTAVYYCARGYNWNYFDYWGQGTLVTVSSA
binding to GPNMB (GPNMB; 1:25 dilution of cell supernatant): strong binding | Kd (GPNMB; [2]): 52 nM | ka (GPNMB; [2]): 16524 M⁻¹ s⁻¹ | kd (GPNMB; [2]): 0.000855 s⁻¹ | tumor response ([1]; listed as CR011 antibody alone): lack of tumor growth inhibition | tumor response ([1]; listed as unconjugated CR011): lack of responses | % G1 (SK-Mel-2 cells): 63.6% | % G2/M (SK-Mel-2 cells): 6.4% | % S-phase (SK-Mel-2 cells): 25.2% | % Sub-G1 (SK-Mel-2 cells): 0.5% | % G1 (TK-10 cells): 42.0% | % G2/M (TK-10 cells): 6.3% | % S-phase (TK-10 cells): 39.8% | % Sub-G1 (TK-10 cells): 0.3% | surface staining above control mAb background (SF-268): around 1.5 fold | surface staining above isotype control mAb background (SF-539): at least 1.5 fold | surface staining above isotype control mAb background (SNB-78): at least 1.5 fold | surface staining above isotype control mAb background (U-118-MG): at least 1.5 fold | surface staining above isotype control mAb background (XF-498): at least 1.5 fold

Reference: US8846873B2, “Antibodies directed to GPNMB and uses thereof” (Celldex Therapeutics, Inc., priority 2004, dated 2014)
